{"source": "a protein production outcome set (Wang et al. 2014)", "data": [{"assay": "label from the status in PepcDB records", "values": [{"sequence": "MDFLARATAIVGNTMVLMRRFGSPGTQAIGQSPAIPEAQKQGIMTLKMPAAKGWAPGHLPTPAPGLKVNAFARDLEHPRWIEVLPSGDVLVAEARQLPTPPKTLLDRAAQATMRRIRALGDSPNRITLLRDPDGRGEAQERETFLENQSQPFGMALVGDTFYVGNTDGIMAFPYRPGATRLEGPGRRLTTFKPGGHWTRSLIVSPDGRRIYAGVGSLSNIGDDGMEAEEGRAAIWELDLASGQARIYASGLRNPVGLAWEPTTRVLWTVVNERDGLGDETPPDYLTSVEEDGFYGWPYCYWNRIVDDRVPQDPAMVARAITPDYALGGHTASLGLCWVPAGTLPGFGDGMAIGQHGSWNRSKLSGYRLIFVPFANGRPSGPPRDILTGFLSDDEKLAYGRPVGVAVGPDRRSLLLADDVGDVIWRVTGALEHHHHHH", "protein production": "failed"}, {"sequence": "MDFPTISRSPSGPPAMDLEGPRDILVPSEDLTPDSQWDPMPGGPGSLSRMELDESSLQELVQQFEALPGDLVGPSPGGAPCPLHIATGHGLASQEIADAHGLLSAEAGRDDLLGLLHCEECPPSQTGPEEPLEPAPRLLQPPEDPDEDSDSPEWVEGASAEQEGSRSSSSSPEPWLETVPLVTPEEPPAGAQSPETLASYPAPQEVPGPCDHEDLLDGVIFGARYLGSTQLVSERNPPTSTRMAQAREAMDRVKAPDGETQPMTEVDLFVSTKRIKVLTADSQEAMMDHALHTISYTADIGCVLVLMARRRLARRPAPQDHGRRLYKMLCHVFYAEDAQLIAQAIGQAFAAAYSQFLRESGIDPSQVGVHPSPGACHLHNGDLDHFSNSDNCREVHLEKRRGEGLGVALVESGWGSLLPTAVIANLLHGGPAERSGALSIGDRLTAINGTSLVGLPLAACQAAVRETKSQTSVTLSIVHCPPVTTAIIHRPHAREQLGFCVEDGIICSLLRGGIAERGGIRVGHRIIEINGQSVVATPHARIIELLTEAYGEVHIKTMPAATYRLLTGQEQPVYL", "protein production": "not failed"}, {"sequence": "MDFQHRPGGKTGSGGVASSSESNRDRRERLRQLALETIDINKDPYFMKNHLGSYECKLCLTLHNNEGSYLAHTQGKKHQTNLARRAAKEAKEAPAQPAPEKVKVEVKKFVKIGRPGYKVTKQRDSEMGQQSLLFQIDYPEIAEGIMPRHRFMSAYEQRIEPPDRRWQYLLMAAEPYETIAFKVPSREIDKAEGKFWTHWNRETKQFFLQFHFKMEKPPAPPSLPAGPPGVKRPPPPLMNGLPPRPPLPESLPPPPPGGLPLPPMPPTGPAPSGPPGPPQLPPPAPGVHPPAPVVHPPASGVHPPAPGVHPPAPGVHPPAPGVHPPTSGVHPPAPGVHPPAPGVHPPAPGVHPPAPGVHPPAPGVHPPPSAGVHPQAPGVHPAAPAVHPQAPGVHPPAPGMHPQAPGVHPQPPGVHPSAPGVHPQPPGVHPSNPGVHPPTPMPPMLRPPLPSEGPGNIPPPPPTN", "protein production": "failed"}, {"sequence": "MDFSKAFGLVYKALDYRSLRQDMIASNIANVDTPFYRPKDLDFESVLAKKKAEIFENQSSKVLPLAHTNPRHLDFENSAKDGASLFFRDGHLAKNDGNSVDLDIETSEMGKNSTMYLALSSALKKYRGVINYAIDSSKNL", "protein production": "failed"}, {"sequence": "MDFSQLGGLLDGMKKEFSQLEEKNKDTIHTSKSGGGMVSVSFNGLGELVDLQIDDSLLEDKEAMQIYLMSALNDGYKAVEENRKNLAFNMLGNFAKL", "protein production": "not failed"}, {"sequence": "MDFVPKILGNVVLLLSAGLNWTAMRVFAGRRPHVPGLLAGAGIWLILCVVPAFYQSMPVRVSVYSLLAAAYGVLTLLEFWRSRQQLEVAYMPAVVLTLLHTMYYIVRAVVDQGVAMDQALKGYGAGVPLFSFMLFESMLYVIGIAYVTLCMVKERVELRFKAAAFCDALTGIGNRRAFMVNGERMLIECQRRCSPMALLLCDLDHFKRLDDAYGHQTGDQVLVAFSQVLAETLGTKDVYARIGGEEFACLLAATDEQAAVTVAERVRQAFARLPLLEPGLLSVSIGVVSSETRGYDLPRLLSLADEALYDAKHQGRNRVHTVSRSALELQPD", "protein production": "failed"}, {"sequence": "MDFVPSLPTLIAFTIAILLLAVTPGPDMTLWISRSLREGRAAGFMTLVGTNIGITVHTMLVAFGVAALIVASPTAFMILKTGGAAYLVWLAIQAIRKGSDFVMVKSTGEKAQASLKSALLNGIWVNLLNPKVIIFFMTFLPQFVSATDPHVTGKLIFLGIWSIIVALPIGIGIVVTADILSAWLQRNRKVLRGLDYTIAGVFSLFAVKIFFTQTR", "protein production": "failed"}, {"sequence": "MDFYQFAEYIVLNYGYFGIFLIAFTEAVIQPILPDIFIIGASAFGLDSVTCALVASFGSLTGGYTGYFLGKKLGTNVFLKIFKEKYFIKGKAFFEKFGVWGVAIAGFTPIPYKVFAWLAGIFKMNLVSFGAGTLLGRIPRFLLVAYFGYSLGLLFGLHTP", "protein production": "failed"}, {"sequence": "MDGDFRTSFVREPAGLRPYPALVLNADYRPLSYYPLSLWPWQEAIKAAFLDRVSIVAEYDQVVRSQRAALRIPSVVVLKEFVSPQKRVAFTRFNLFLRDEFRCQYCGAKGDLTFDHVVPRARGGVTSWQNVVAACSPCNLHKGSKTLKQAGMRLARIPREPTPAEMQRHGQRFPPNHLHDSWLDYLYWDAELEALEHHHHHH", "protein production": "failed"}, {"sequence": "MDGHNQNQYQNQNQIQQSQQPPLKKYVTQRRSVDVSSPYINLYYNRRHGLPNLVVEPETSYTIDIMPPNAYRGRDRVINLPSKFTHLSSNKVKHVIPAIQWTPEGRRLVVATYSGEFSLWNASSFTFETLMQAHDSAVTTMKYSHDSDWMISGDADGMIKIWQPNFSMVKEIDAAHTESIRDMAFSSNDSKFVTCSDDNILKIWNFSNGKQERVLSGHHWDVKSCDWHPEMGLIASASKDNLVKLWDPRSGNCISSILKFKHTVLKTRFQPTKGNLLMAISKDKSCRVFDIRYSMKELMCVRDETDYMTLEWHPINESMFTLACYDGSLKHFDLLQNLNEPILTIPYAHDKCITSLSYNPVGHIFATAAKDRTIRFWTRARPIDPNAYDDPTYNNKKINGWFFGINNDINAVREKSEFGAAPPPPATLEPHALPNMNGFINKKPRQEIPGIDSNIKSSTLPGLSI", "protein production": "failed"}, {"sequence": "MDGSNVTSFVVEEPTNISTGRNASVGNAHRQIPIVHWVIMSISPVGFVENGILLWFLCFRMRRNPFTVYITHLSIADISLLFCIFILSIDYALDYELSSGHYYTIVTLSVTFLFGYNTGLYLLTAISVERCLSVLYPIWYRCHRPKYQSALVCALLWALSCLVTTMEYVMCIDREEESHSRNDCRAVIIFIAILSFLVFTPLMLVSSTILVVKIRKNTWASHSSKLYIVIMVTIIIFLIFAMPMRLLYLLYYEYWSTFGNLHHISLLFSTINSSANPFIYFFVGSSKKKRFKESLKVVLTRAFKDEMQPRRQKDNCNTVTVETVV", "protein production": "failed"}, {"sequence": "MDHGVVLLSDDQGLQWRQASSVPLSTPLTGVSFVDAKRGWAVGHWGAILITTDGGESWQVQRLATEEDRPLFAVHFFNARQGVAVGLWSLVLTTEDGGQTWSEQPLQAPPGAKRADLNLMGLFADSRGTLYATAEHGQVLHSEDQGKNWRYLDTGYEGTLWAGAVLADGRLLLGGQRGTLLQGSADGKGFHRVPTQSKGSVTCVAVAGSRVLAVGLDGLSVQSSDGGHSFQETQTADGLSLTAALFNAEGVPVLFSRRGVMPYQELEHHHHHH", "protein production": "failed"}, {"sequence": "MDHKDLAQRILRDIGGEDNIVAAAHCATRLRLVLKDTKDVDRQSLDDDPDLKGTFETGGMFQIIVGPGDVDHVFKELDDATSKDIAVSTEQLKDVVANNANWFSRAVKVLADIFVPLIPILVGGGLLMAINNVLVAQDLFGPQSLVEMFPQISGVAEMINLMASAPFAFLPVLVGFTATKRFGGNEFLGAGIGMAMVFPSLVNGYDVAATMAAGEMPMWSLFGLDVAQAGYQGTVLPVLVVSWILATIEKFLHKRLKGTADFLITPVLTLLLTGFLTFIAIGPAMRWVGDVLAHGLQGLYDFGGPVGGLLFGLVYSPIVITGLHQSFPPIELELFNQGGSFIFATASMANIAQGAACLAVFFLAKSEKLKGLAGASGVSAVLGITEPAIFGVNLRLRWPFFIGIGTAAIGGALIALFNIKAVALGAAGFLGVVSIDAPDMVMFLVCAVVTFFIAFGAAIAYGLYLVRRNGSIDPDATAAPVPAGTTKAEAEAPAEFSNDSTIIQAPLTGEAIALSSVSDAMFASGKLGSGVAIVPTKGQLVSPVSGKIVVAFPSGHAFAVRTKAEDGSNVDILMHIGFDTVNLNGTHFNPLKKQGDEVKAGELLCEFDIDAIKAAGYEVTTPIVVSNYKKTGPVNTYGLGEIEAGANLLNVAKKEAVPATP", "protein production": "failed"}, {"sequence": "MDHQFGYGVEVTGLSPSVTHNDLIDFFSFSGTIQDIDIVRSGEQACTAYVMFKDSYSQETAVLLTGATILDQRVCITRWGQHHEEFDFWNATSRGFEDESDSQHYAQRSEFNAGEAVTKAQEVVKIMLATGFVLGKDALSKAKAFDESHGVSAAAVARVSQLEQRIGLTDKIFTGLEAVRMTDQRYHVSDTAKSAVFATGRTAAAAATSVVNSSYFSSGALWLSGALERAAKAASDLGTRGSRQ", "protein production": "failed"}]}]}
